Reference: US20220265772A1, “USES OF DAN FAMILY BMP ANTAGONISTS FOR INHIBITING OCULAR NEOVASCULARIZATION AND TREATING OCULAR CONDITIONS” (9636137 Canada Inc., priority 2019, published 2022)

What was measured:
Wnt signaling = test: Canonical Wnt signaling in HUVECs (immunoblotting, β-catenin immunofluorescence); assay type: cell-based, human
Procedure: FIG. 12 is a panel with a schematic, pictures showing that Dand5 reduces canonical Wnt signaling in HUVECs. HUVECs were plated to confluence and received a 2 h scratch in the presence or absence of Dand5 ([…]) or IWR1 (3 μM). β-catenin (green) localization was examined by immunofluorescence with phalloidin and DAPI (nuclei) to identify the cell boundaries and nucleus. […] Scale bars, […]).
(§1) Cells were washed with cold PBS and extracted in Laemmli's buffer, followed by sonication. Samples were run on SDS-PAGE gels and transferred onto nitrocellulose membranes. Membranes were blocked with 5% Bovine Serum Albumin (BSA) and probed with primary antibodies overnight at 4° C.: beta-Catenin (Cell Signaling Technology), phospho-beta-catenin (Cell Signaling Technology), Axin2 (Cell Signaling Technology), beta-Actin (Santa Cruz Technologies). HRP-conjugated secondary antibodies (Vector Laboratories) were used to detect primary antibodies.
We next evaluated the molecular mechanisms underlying the effects of DAND5 on endothelial cells. […] Wnt signaling regulates fundamental aspects of vascular development, including cell fate specification, proliferation and survival. […] HUVECs were treated for up to 24 hours with DAND5 or IWR-1, an inhibitor of Wnt canonical signaling. Protein extracts were harvested and subjected to immunoblotting against downstream effectors of Wnt signaling. […] The levels of β-catenin at different subcellular localizations are regulated by a variety of processes including site-specific phosphorylation of β-catenin. In the absence of an active Wnt signaling, β-catenin localization at cellular junctions is reduced and cytoplasmic β-catenin associates with the destruction complex (6).

VEGF signaling = VEGF signaling and VEGF receptor levels in HUVECs (immunoblotting); assay type: cell-based, human
Procedure: FIG. 6A: HUVECs were grown in complete media were in the absence or presence of Dand5 or IWR1 for up to 24 hours. Protein extracts were analyzed by immunoblotting (representative image of n=3 experiments). FIG. 6C: HUVECs were grown in low serum media for 16 h in the absence or presence of 60 ng/mL of Dand5. VEGF signaling was induced by addition of 25 ng/mL of rhVEGF for up to 60 minutes. Protein extracts were analyzed by immunoblotting (representative image of n=3). FIG. 6D: Quantification of the mean gray value of phosphorylated proteins normalized to the mean gray value of β-Actin of immunoblots in FIG. 6C (n=3, ns). FIG. 6E: HUVECs were plated in the presence or absence of 60 ng/mL of Dand5. Proteins extracts were analyzed for expression of VEGF receptors (representative image of n=3).
as §1
HUVECs were starved overnight in the presence or absence of DAND5, followed by VEGF stimulation for up to 60 minutes. […] Likewise, VEGFR2 and VEGFR1 levels were unaffected upon HUVECs exposure to DAND5 for 0.5-24 h (FIG. 6 E, F).

LDHA = test: AMPLI-seq transcriptome analysis of HUVECs; assay type: cell-based, human; details: HUVECs treated for 6 and 16 h
Procedure: FIG. 7 is a panel with a schematic and graphs showing that DAND5 modifies the metabolic transcriptional program in cultured endothelial cells. HUVECs were treated for 6 and 16 h with either PBS or DAND5, before RNA extraction. RNA was reverse-transcribed and cDNA amplified using IonTorrent Ampliseq™ Transcriptome Human Gene Expression kit. FIG. 7A: Heat map of metabolism-related genes.
We performed AMPLI-seq analysis of HUVECs exposed or not to recombinant DAND5. […] Lactate de-hydrogenase A (LDHA) regulates lactate metabolism during anaerobic respiration.

[1] = system: mitochondrial metabolism in HUVECs; test: NAD+/NADH cycling, ATP, glucose and lactate assays in HUVECs; assay type: cell-based, human
Procedure: HUVECs plated into 100 mm dishes were treated with COCO for various time points. NAD+ and NADH were extracted using ice cold alkali (0.5M NaOH, 1 mM EDTA) and acidic buffers (0.1M HCl) respectively. Extracts were heated at 60° C. for 30 min and buffers were neutralized with either the NADH (100 mM Tris-HCl pH 8.1, 0.05M HCl) or NAD+(0.4M Tris) neutralization buffers. To attain measurable quantities of NAD+ or NADH, an amplifying cycling assay was performed. Extracts and NAD+ standards were incubated with cycling reagent (67 mM Tris-HCl pH 8, 200 mM EtOH, 1.3 mM beta-mercaptoethanol, 0.01% BSA, 2 mM oxaloacetic acid, 0.5 μg/mL malate dehydrogenase, 5 μg/mL alcohol dehydrogenase) for 1 hour at room temperature. All samples were heated for 5 min at 100 C to stop enzymatic reactions then cooled on ice. For detection, extracts were incubated in an indicator buffer (50 mM 2-amino-2-methyl-propanol pH 9.9, 200 μM NAD+, 10 mM glutamate, 0.04% BSA, 5 μg/mL malate dehydrogenase, 2 μg/mL glutamate oxaloacetate transaminase) for 10 min at room temperature. Then 100 μL if sample was transferred to a black 96-well plate. Fluorescence was detected using a plate reader (TECAN) at an excitation of 365 nm and emission of 460 nm. Standard curves were generated and the concentration of NAD+ and NADH were calculated from the standard curve (references: Kato T., et al. Analytical Biochemistry 53, 86-97 (1973); Lin S., et al, JBC. Vol 276, No. 38, 36000-36007 (2001)).
ATP detection: HUVECs were plated into 100 mm dishes and treated with COCO for various time points. ATP was measured by luminescence (ATP Detection Assay Kit; Cayman Chemicals). Metabolite measurements: HUVECs were cultured for up to 48 hours in the presence or absence of COCO. Culture media was collected at 1 h, 3 h, 6 h, 12 h, 24 h and 48 h, centrifuged at 12000 rpm for 5 min, aliquoted and stored at −80 C. Media was analyzed for glucose concentration using a BioProfiler 400 Analyzer (BioNova). For measurements of lactate, the culture media was analyzed using the Lactate Colorimetric/Fluorometric Assay Kit (BioVision, K607) as per the manufacturer's instructions.
We exposed or not HUVECs to recombinant DAND5 and measured the concentration of free radicals using DCFDA and MitoSoxRed™. […] To further test this, we measure the NAD+/NADH ratio in cells treated or not with DAND5. […] Likewise, glucose uptake was reduced and lactate levels were increased in DAND5-treated HUVECs after 1 h (FIG. 8E, lower panel).

[2] = system: human pluripotent stem cells / stem cell-derived human cones; details: cited from earlier work
[3] = HUVECs treated for up to 24 hours, immunoblotting

B1: DAND5: human recombinant DAND5/COCO biologically active fragment produced in E. coli, predicted 18.2 kDa monomer, R&D systems 3047-CC-050 (protein)
chain: MRPEPQSPRPQSWAAANQTWALGPGALPPLVPASALGSWKAFLGLQKARQLGMGRLQRGQDEVAAVTLPLNPQEVIQGMCKAVPFVQVFSRPGCSAIRLRNHLCFGHCSSLYIPGSDPTPLVLCNSCMPARKRWAPVVLWCLTGSSASRRRVKISTMLIEGCHCSPKA
levels of Axin2 (Wnt signaling; [3]): increased levels of Axin2
levels of phosphorylated beta-catenin (Wnt signaling; [3]): increased levels of phosphorylated beta-catenin
levels of total beta-catenin (Wnt signaling; [3]): decreased levels of total beta-catenin
cytoplasmic β-catenin (Wnt signaling; confluent HUVECs, 2 h scratch, Dand5 60n/mL or IWR1 3 μM): increased cytoplasmic β-catenin
β-catenin subcellular localization (Wnt signaling; staining of HUVECs cultured in the presence of DAND5): decreased membrane localization and increased internalization of β-catenin in the cytoplasm
VEGFR2 phosphorylation at Y1175 (VEGF signaling; HUVECs cultured in the presence of DAND5): unaffected
VEGFR2 and VEGFR1 levels (VEGF signaling; HUVECs exposed for 0.5-24 h): unaffected
VEGF-induced phosphorylation of VEGF downstream effectors (VEGF signaling; HUVECs starved overnight with DAND5, VEGF stimulation up to 60 minutes): no significant decrease in VEGF-induced phosphorylation of VEGF downstream effectors
LDHA expression (LDHA): down-regulation of LDHA
NAD+/NADH ratio ([1]; HUVECs exposed to DAND5): decreased
glucose uptake ([1]; HUVECs, after 1 h): reduced
lactate levels ([1]; HUVECs, after 1 h): increased
ATP levels ([1]; HUVECs, after 1 h of treatment): reduced
ATP levels ([1]; HUVECs, at 1, 6 and 24 hours): reduced
cone photoreceptor differentiation and maintenance ([2]; recent study (16)): potent inducer of cone photoreceptor differentiation and maintenance
differentiation of human pluripotent stem cells into cone photoreceptors ([2]; reference (16)): can promote the differentiation of human pluripotent stem cells into cone photoreceptors
